In the supplement of paper PMC7877785:
± gives the uncertainty stated by the source.

Assay: self-splicing fitness, log relative to wild type (ln ratio); higher = more splicing; Tetrahymena group I intron in knt gene, E. coli kanamycin selection, DiMSum; sequences stand for … in CUCUCU…GGAGGGAAAAGUUAUCAGGCAUGCACCUGGUAGCUAGUCUUUAAACCAAUAGAUUGCAUCGGUUUAAAAGGCAAGACCGUCAAAUUGCGGGAAAGGGGUCAACAGCCGUUCAGUACCAAGUCUCAGGGGAAACUUUGAGAUGGCCUUGCAAAGGGUAUGGUAAUAAGCUGACGGACAUGGUCCUAACCACGCAGCCAAGUCCUAAGUCAACAGAUCUUCUGUUGAUAUGGAUGCAGUUCACAGACUAAAUGUCGGUCGGGGAAGAUGUAUUCUUCUCAUAAGAUAUAGUCGGACCUCUCCUUAAUGGGAGCUAGCGGAUGAAGUGAUGCAACACUGGAGCCGCUGGGAACUAAUUUGUAUGCGAAAGUAUAUUGAUUAGUUUUGGAGUACUCGUGGUCG
How it was run: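 A randomised library covering all eight P1ex-region intron nucleotides was built with the intron in the knt kanamycin-resistance gene on pET-22b(+) and held in E. coli BL21(DE3). Cells were grown overnight at 37°C or 30°C on LB agar, with or without 25 μg/mL kanamycin, plus 100 μg/mL carbenicillin, 50 μM IPTG and 0.2% rhamnose, and pooled colonies were amplicon-sequenced on an Illumina HiSeq 2500. DiMSum fitness is the error-weighted combination of wild-type-normalised replicate fold changes, kanamycin versus none.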

Row | Sequence | self-splicing fitness (ln) (30 °C) | self-splicing fitness (ln) (37 °C)
1 | GGAUAGCAAUAUUACGGGGC | -3.69 ± 0.23 | -1.95 ± 0.16
2 | GGAUAGCAAUAUUACGGUCA | -0.171 ± 0.081 | -0.0595 ± 0.11
3 | GGAUAGCAAUAUUACGGUCC | – | -2.68 ± 0.48
4 | GGAUAGCAAUAUUACGGUUA | -0.755 ± 0.2 | 0.0186 ± 0.17
5 | GGAUAGCAAUAUUACGUAAG | -1.87 ± 0.17 | -0.386 ± 0.2
6 | GGAUAGCAAUAUUACGUGCG | -0.974 ± 0.094 | -0.046 ± 0.12
7 | GGAUAGCAAUAUUACGUUGC | -4.63 ± 0.36 | -2.2 ± 0.28
8 | GGAUAGCAAUAUUACGUUUU | -1.33 ± 0.11 | -1.62 ± 0.14
9 | GGCAAGCAAUAUUACGAAAG | -2.97 ± 0.28 | –
10 | GGCAAGCAAUAUUACGAGCC | -2.21 ± 0.43 | -1.52 ± 0.44
11 | GGCAAGCAAUAUUACGAGCG | -0.697 ± 0.073 | 0.427 ± 0.097
12 | GGCAAGCAAUAUUACGAGUA | -1.52 ± 0.15 | -0.685 ± 0.13
13 | GGCAAGCAAUAUUACGAGUG | -1.1 ± 0.069 | -0.88 ± 0.071
14 | GGCAAGCAAUAUUACGAUUC | 0.184 ± 0.062 | 0.142 ± 0.091
15 | GGCAAGCAAUAUUACGCACA | -0.684 ± 0.09 | 0.564 ± 0.11
16 | GGCAAGCAAUAUUACGCCCC | – | -1.27 ± 0.35
17 | GGCAAGCAAUAUUACGCGCA | 0.145 ± 0.077 | 0.461 ± 0.11
18 | GGCAAGCAAUAUUACGCUUG | -3.26 ± 0.2 | -3.49 ± 0.34
19 | GGCAAGCAAUAUUACGGAAU | -0.693 ± 0.075 | -0.506 ± 0.1
20 | GGCAAGCAAUAUUACGGCAC | -0.671 ± 0.071 | 0.369 ± 0.12
21 | GGCAAGCAAUAUUACGGCAG | -2.32 ± 0.14 | -1.15 ± 0.15
22 | GGCAAGCAAUAUUACGGCAU | -0.207 ± 0.043 | 0.531 ± 0.06
23 | GGCAAGCAAUAUUACGGUAA | -1.28 ± 0.097 | 0.108 ± 0.094
24 | GGCAAGCAAUAUUACGGUAU | -1.17 ± 0.068 | -0.119 ± 0.077

Row | Sequence | self-splicing fitness (ln) (30 °C) | self-splicing fitness (ln) (37 °C)
25 | GGCAAGCAAUAUUACGGUUG | -1.16 ± 0.063 | -0.62 ± 0.083
26 | GGCAAGCAAUAUUACGUAGA | 0.226 ± 0.077 | 0.582 ± 0.11
27 | GGCAAGCAAUAUUACGUAGU | -1.52 ± 0.098 | -0.197 ± 0.11
28 | GGCAAGCAAUAUUACGUCCG | -3.73 ± 0.27 | -1.61 ± 0.2
29 | GGCAAGCAAUAUUACGUGAA | -0.509 ± 0.091 | 0.184 ± 0.11
30 | GGCAAGCAAUAUUACGUUCU | -0.68 ± 0.089 | 0.436 ± 0.11
31 | GGCAAGCAAUAUUACGUUUC | -0.714 ± 0.1 | -0.0706 ± 0.14
32 | GGCCAGCAAUAUUACGAAAG | -4.21 ± 0.37 | -2.71 ± 0.41
33 | GGCCAGCAAUAUUACGAAGA | -3.15 ± 0.22 | -2.85 ± 0.27
34 | GGCCAGCAAUAUUACGAAGU | -2.41 ± 0.39 | -1.26 ± 0.26
35 | GGCCAGCAAUAUUACGACGA | -2.9 ± 0.16 | -1.98 ± 0.12
36 | GGCCAGCAAUAUUACGAGGG | -3.58 ± 0.16 | -1.75 ± 0.17
37 | GGCCAGCAAUAUUACGCACA | -0.344 ± 0.16 | -0.177 ± 0.17
38 | GGCCAGCAAUAUUACGGGAC | -2.68 ± 0.12 | -1.21 ± 0.15
39 | GGCCAGCAAUAUUACGGGAU | -1.73 ± 0.097 | -0.354 ± 0.1
40 | GGCCAGCAAUAUUACGGGUU | -3.08 ± 0.17 | -2.06 ± 0.19
41 | GGCCAGCAAUAUUACGGUCA | -0.963 ± 0.1 | -0.389 ± 0.1
42 | GGCCAGCAAUAUUACGGUCU | -2.82 ± 0.15 | -2.78 ± 0.3
43 | GGCCAGCAAUAUUACGUACC | -0.685 ± 0.13 | 1.43 ± 0.17
44 | GGCCAGCAAUAUUACGUCAU | -1.7 ± 0.063 | -1.27 ± 0.08
45 | GGCCAGCAAUAUUACGUGUA | -2.41 ± 0.083 | -1.51 ± 0.1
46 | GGCCAGCAAUAUUACGUUAG | -3.38 ± 0.26 | -2.82 ± 0.34
47 | GGCCAGCAAUAUUACGUUCA | -3.23 ± 0.23 | -0.905 ± 0.19
48 | GGCGAGCAAUAUUACGAAAG | -3.27 ± 0.3 | -2.77 ± 0.24
